Measurements reported in patent US20250052751A1, “COMPOSITIONS AND METHODS FOR DIAGNOSING AUTOIMMUNE AQUAPORINOPATHY” (The Regents of the University of California, priority 2023, published 2025).

Target: MHC class II I-A^b molecules purified by affinity chromatography (mouse) (UniProt P14434)
Assay: competitive peptide binding assay on purified I-Ab

MOG p35-55 (from UniProt Q61885 63-83)
IC50: 0.387 µM
